Assay results from PMC4605301, “hSSB1 (NABP2/ OBFC2B) is required for the repair of 8-oxo-guanine by the hOGG1-mediated base excision repair pathway”.

Biological target: hSSB1 (NABP2/OBFC2B) (Homo sapiens, UniProt Q9BQ15 1-211)
Experiment: EMSA; 0-2 uM hSSB1; 90 fmol DNA in 10 ul; 8-oxoG opposite C (pairing base inferred); EMSA: 50 mM Tris-HCl pH 7.5, 100 mM KCl, 100 ug/ml BSA, 15 min at 37 C; 8% polyacrylamide gel
Conditions: protein: recombinant; tags: N-terminal His6; label: 5' FAM; blunt

Sequence of hSSB1 (NABP2/OBFC2B) (Q9BQ15 whole entry): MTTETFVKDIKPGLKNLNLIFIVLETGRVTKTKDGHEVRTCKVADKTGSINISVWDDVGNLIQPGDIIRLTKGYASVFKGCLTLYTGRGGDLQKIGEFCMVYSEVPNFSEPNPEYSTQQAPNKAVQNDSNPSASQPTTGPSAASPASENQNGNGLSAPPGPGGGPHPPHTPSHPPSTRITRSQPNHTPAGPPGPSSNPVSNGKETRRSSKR

B1: 8-oxoG:C dsDNA (dsDNA)
DNA 1: CTCTCCCTTCGCTCCTTTCCTCT
DNA 2: AGAGGAAAGGAGCGAAGGGAGAG
modifications: 8-oxoguanine at position 11 of strand 1 (written G)
  binding result: binds
